Data taken from patent publication US20110054149A1.

Target: GST-human NOGO-A56 (human) (UniProt Q9NQC3)
Assay: SPR (Biacore 3000), GST-human NOGO-A56 on CM5 chip, antibody as analyte; single experiment

Sequence of GST-human NOGO-A56 (human) (Q9NQC3 586-785): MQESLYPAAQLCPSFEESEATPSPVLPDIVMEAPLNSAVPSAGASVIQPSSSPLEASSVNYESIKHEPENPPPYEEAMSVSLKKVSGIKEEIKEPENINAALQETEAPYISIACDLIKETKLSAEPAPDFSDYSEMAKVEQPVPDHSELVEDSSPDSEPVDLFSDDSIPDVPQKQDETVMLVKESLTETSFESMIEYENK

Substance: 11C7 (chimeric version) (antibody)
- Kd: 0.057 nM
- koff: 8.25e-05 s⁻¹
- kon: 1.44e+06 M⁻¹ s⁻¹
